# In paper doi:10.1101/2020.04.16.045526:
# Biological target: T1, HapR (Vibrio cholerae E7946 (El Tor)) (UniProt Q4F6W7)
# T1 sequence: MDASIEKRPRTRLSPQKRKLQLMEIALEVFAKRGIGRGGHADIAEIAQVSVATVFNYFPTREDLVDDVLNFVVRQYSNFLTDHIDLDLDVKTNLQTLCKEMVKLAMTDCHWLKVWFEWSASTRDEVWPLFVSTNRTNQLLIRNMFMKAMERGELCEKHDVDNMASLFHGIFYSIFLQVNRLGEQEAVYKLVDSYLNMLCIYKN
# Assay: EMSA
# Conditions: 1-2 internal Cy5-dCTP incorporated by PCR
sequence,measurement,value
TAAGCAAACTGTAGCGTAGAAGGTTGACGAAACAAGCAATCATCTGCTAACAATGGTCCGTGTGATACCCATCATCCGGGCCATTTATTTTAGGGATATAAGACTATGAGCTACCAAGAAAAAAATGCA (double strand) [PclpP promoter probe],binding,no binding
